Experimental findings from article PMC11286949, “Structural basis of tRNA recognition by the widespread OB fold” are described below.

For data set [1], the target named is T1, Arc1p dN (Saccharomyces cerevisiae, UniProt P46672 132-376, del1-131).
T1 sequence: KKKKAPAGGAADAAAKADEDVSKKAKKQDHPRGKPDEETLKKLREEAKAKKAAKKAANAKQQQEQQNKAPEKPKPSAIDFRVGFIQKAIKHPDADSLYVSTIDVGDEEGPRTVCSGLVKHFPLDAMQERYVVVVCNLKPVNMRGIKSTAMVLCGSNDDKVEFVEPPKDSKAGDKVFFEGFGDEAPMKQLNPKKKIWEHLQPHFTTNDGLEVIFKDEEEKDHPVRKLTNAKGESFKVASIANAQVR
Briefly: ITC; ITC (Arc1p): 25 mM Tris-HCl pH 7.4, 150 mM NaCl, 2 mM MgCl2, 25 °C. FP and competition FP: 25 mM Tris-HCl pH 7.5, 150 mM NaCl (Arc1p) or 50 mM NaCl (Trbp111), 2 mM MgCl2, room temperature. The settings on record: protein: recombinant, tags: His-MBP removed. A general note: Isothermal titration calorimetry measures the heat released or taken up as one component is titrated into another.

The target in data set [2] is T1, Arc1p dN. In words: competition fluorescence polarization; ITC (Arc1p): 25 mM Tris-HCl pH 7.4, 150 mM NaCl, 2 mM MgCl2, 25 °C. FP and competition FP: 25 mM Tris-HCl pH 7.5, 150 mM NaCl (Arc1p) or 50 mM NaCl (Trbp111), 2 mM MgCl2, room temperature. The settings on record: protein: recombinant, tags: His-MBP removed.
A further data set has as its target T2, Arc1p (Saccharomyces cerevisiae, UniProt P46672 1-376).
T2 sequence: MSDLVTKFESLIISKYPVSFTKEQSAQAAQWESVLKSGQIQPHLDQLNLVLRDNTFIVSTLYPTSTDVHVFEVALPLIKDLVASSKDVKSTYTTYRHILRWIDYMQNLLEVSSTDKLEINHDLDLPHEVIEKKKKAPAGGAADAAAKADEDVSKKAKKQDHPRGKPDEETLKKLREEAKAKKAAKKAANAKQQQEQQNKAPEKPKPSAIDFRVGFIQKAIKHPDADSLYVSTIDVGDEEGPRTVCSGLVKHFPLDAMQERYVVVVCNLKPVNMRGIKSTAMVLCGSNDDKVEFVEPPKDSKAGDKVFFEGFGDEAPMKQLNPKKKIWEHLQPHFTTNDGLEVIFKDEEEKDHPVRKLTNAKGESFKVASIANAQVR
The description is as above. The following applies: protein: recombinant, tags: His-MBP removed.

A further data set concerns the target Trbp111 (Aquifex aeolicus, UniProt O66738 1-111). Described as above. The following applies: protein: recombinant, tags: His-MBP removed (PreScission), chain copies: 2.

Sequence of Trbp111 (O66738 entry or part of it): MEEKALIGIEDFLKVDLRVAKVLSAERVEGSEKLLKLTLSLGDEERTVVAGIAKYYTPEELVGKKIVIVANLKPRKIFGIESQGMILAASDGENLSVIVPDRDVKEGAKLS

B1: tRNAIle ASL-GAAA/5'GGCC (structured_RNA)
RNA: GGCCGGGCUUGUAGCUCAGGUGGUUAGAGCGCACCGCGAAAGCGGUGAGGUCGGUGGUUCAAGUCCACUCAGGCCC
As usually defined, the Kd is the free concentration of one partner at which half of the binding sites on the other are occupied at equilibrium, for simple one-to-one binding. For B1, the Kd with Arc1p dN [1] (palindromic tail, strong dimer) came to 3.3 µM.

B2: tRNAIle ASL-GAAA dACCA 3bp (structured_RNA)
RNA: GGCGGGCUUGUAGCUCAGGUGGUUAGAGCGCACCGCGAAAGCGGUGAGGUCGGUGGUUCAAGUCCACUCAGGCCCGCC
Broadly, the IC50 is the concentration that gives 50% inhibition. On to B2, for which the IC50 was determined as 0.681 ± 0.201 µM with Arc1p dN [2] and 9.92 µM with Arc1p.

B3: tRNAIle 3'UGGU (structured_RNA)
RNA: AGGCUUGUAGCUCAGGUGGUUAGAGCGCACCCCUGAUAAGGGUGAGGUCGGUGGUUCAAGUCCACUCAGGCCUUGGU
With B3, the Kd with Arc1p dN [1] (tRNA fold) is 0.654 ± 0.165 µM.

B4: tRNAIle G18C/G19C (G1, Fig. 5a) (structured_RNA)
RNA: GGGCUUGUAGCUCAGGUCCUUAGAGCGCACCCCUGAUAAGGGUGAGGUCGGUGGUUCAAGUCCACUCAGGCCUACCA
B4: the Kd in the data set with Arc1p dN [1] (elbow disrupted) came out at 3.33 µM.

B5: tRNAIle G18C/G19C (A1, Suppl. Fig. 13b) (structured_RNA)
RNA: AGGCUUGUAGCUCAGGUCCUUAGAGCGCACCCCUGAUAAGGGUGAGGUCGGUGGUUCAAGUCCACUCAGGCCUACCA
For B5, the IC50 with Arc1p dN [2] came out at 0.804 ± 0.107 µM. In the case of ACCACUCACGCCU (ssRNA) [ssRNA 5'ACCA], the binding result with Trbp111 (single strand) is “no binding”.

Consider CCACUCAGGCCU (ssRNA) [ssRNA dACCA], for which, in the data set with Trbp111 (single strand), the binding result was “no binding”. Take AGGCUUGGGUGGUUCAAGUCCACUCAGGCCUACCAUUUU (structured_RNA) [MiniH +UUUU]: the binding result with Trbp111 (hairpin) is “no binding”. The IC50 with Arc1p dN [2] (hairpin) was determined as 9.39 ± 0.782 µM. On the same counts, the results for AGGCUUCGAAAGAGGCCUUGGU (structured_RNA) [MicroH UGGU] are “no binding” and 43 ± 7.65 µM.

B6: S. cerevisiae tRNAAsp (G1-C72) (structured_RNA)
RNA: GCCGUGAUAGUUUAAUGGUCAGAAUGGGCGCUUGUCGCGUGCCAGAUCGGGGUUCAAUUCCCCGUCGCGGCGCCA
Regarding B6, the IC50 with Arc1p dN [2] worked out at 0.402 ± 0.0538 µM; with Arc1p, 1.71 ± 0.125 µM. As to AGGCUUUUCAAGUAGGCCU (structured_RNA) [MicroH dACCA], in the data set with Arc1p dN [2] (hairpin), the IC50 is 53.7 ± 5.22 µM.

B7: tRNAIle d3'A (structured_RNA)
RNA: AGGCUUGUAGCUCAGGUGGUUAGAGCGCACCCCUGAUAAGGGUGAGGUCGGUGGUUCAAGUCCACUCAGGCCUACC
Take B7: the Kd in the data set with Arc1p dN [1] (tRNA fold) came to 1.04 ± 0.295 µM.

B8: tRNAIle G18C/G19C/dACCA (structured_RNA)
RNA: GGGCUUGUAGCUCAGGUCCUUAGAGCGCACCCCUGAUAAGGGUGAGGUCGGUGGUUCAAGUCCACUCAGGCCC
Regarding B8, the Kd with Arc1p dN [1] (elbow disrupted) stood at 2.79 ± 0.304 µM.

B9: tRNAIle dACCA (structured_RNA)
RNA: GGGCUUGUAGCUCAGGUGGUUAGAGCGCACCCCUGAUAAGGGUGAGGUCGGUGGUUCAAGUCCACUCAGGCCC
As for B9, the equilibrium dissociation constant (Kd) with Arc1p dN [1] (tRNA fold) came to 2.1 ± 0.985 µM.

B10: tRNAIle ASL-GAAA/5'GC (structured_RNA)
RNA: GCGGGCUUGUAGCUCAGGUGGUUAGAGCGCACCGCGAAAGCGGUGAGGUCGGUGGUUCAAGUCCACUCAGGCCC
Consider B10, for which the dissociation constant (Kd) in the data set with Arc1p dN [1] (palindromic tail, weak dimer) was found to be 1.5 ± 0.283 µM.

B11: human mascRNA (structured_RNA)
RNA: GAUGCUGGUGGUUGGCACUCCUGGUUUCCAGGACGGGGUUCAAAUCCCUGCGGCGUCUCCA
B11: the IC50 with Arc1p dN [2] (tRNA-like) amounted to 0.377 ± 0.0571 µM; with Arc1p (tRNA-like), 1.14 ± 0.127 µM.

For the molecule AGGCUUGGGUGGUUUUUUUCCACUCAGGCCUACCA (structured_RNA) [MiniH ULoop], the IC50 with Arc1p dN [2] was determined as 3.95 ± 0.248 µM.

B12: MiniH dLoop (dsRNA)
RNA 1: CCACUCAGGCCUACCA
RNA 2: AGGCUUGGGUGG
Take B12: the IC50 in the data set with Arc1p dN [2] was 2.26 ± 1.21 µM. Regarding AGGCUUCGAAAGAGGCCUACCA (structured_RNA) [MicroH GAAA loop], the IC50 was determined as 5.92 ± 0.188 µM with Trbp111 (hairpin) and 13.4 ± 5.38 µM in the data set with Arc1p dN [2] (hairpin).

B13: tRNATyr G17C/G18C (structured_RNA)
RNA: GGUGGGGUUCCCGAGCCCCCAAAGGGAGCAGACUGUAAAUCUGCCGUCAUCGACUUCGAAGGUUCGAAUCCUUCCCCCACCACCA
As for B13, the IC50 with Arc1p dN [2] worked out at 0.652 ± 0.0471 µM; with Arc1p it was 4.52 µM.

B14: MiniH dLoop+6bp (dsRNA)
RNA 1: GCAUGACCACUCAGGCCUACCA
RNA 2: AGGCUUGGGUGGUUAUGC
On to B14, for which, in the data set with Arc1p dN [2], the IC50 was 3.47 ± 0.263 µM.

B15: tRNAIle ASL-GAAA/dACCA (structured_RNA)
RNA: GGGCUUGUAGCUCAGGUGGUUAGAGCGCACCGCGAAAGCGGUGAGGUCGGUGGUUCAAGUCCACUCAGGCCC
For the molecule B15, the Kd with Arc1p dN [1] (tRNA fold) was found to be 1.75 ± 0.958 µM. Turning to AGGCUUUUCAAGUAGGCCUUGGU (structured_RNA) [MicroH 3'UGGU], the IC50 with Arc1p dN [2] turned out to be 15.3 ± 3.31 µM.

With AGGCUUGGGUGCGAAAGCACUCAGGCCUACCA (structured_RNA) [MiniH LoopGAAA], the IC50 with Arc1p dN [2] was 3.06 ± 0.0821 µM.

B16: MiniH dLoop+2bp (dsRNA)
RNA 1: GACCACUCAGGCCUACCA
RNA 2: AGGCUUGGGUGGUC
Consider B16, for which the IC50 in the data set with Arc1p dN [2] amounted to 4.66 ± 1.43 µM.

B17: tRNAIle ASL-GAAA (structured_RNA)
RNA: GGGCUUGUAGCUCAGGUGGUUAGAGCGCACCGCGAAAGCGGUGAGGUCGGUGGUUCAAGUCCACUCAGGCCUACCA
As for B17, in the data set with Arc1p dN [1] (tRNA fold), the Kd is 0.252 ± 0.11 µM.

Consider AGGCUUGGGUGGUUCAAGUCCACUCAGGCCU (structured_RNA) [MiniH dACCA], for which the binding result with Trbp111 (hairpin) is on record as “no binding”. Also, the IC50 in the data set with Arc1p dN [2] (hairpin) is 10.5 ± 2.82 µM. Turning to AGGCUUGGGUGGUUCAAGUCCACUCAGGCCUACA (structured_RNA) [MiniH dC74], the values for the IC50 in the data set with Trbp111 (hairpin) and with Arc1p dN [2] (hairpin) were 5.06 ± 0.269 µM and 3.03 ± 0.158 µM, respectively.

Consider AGGCUUGGGUGGUUCAAGUCCACUCAGGCCUCCA (structured_RNA) [MiniH dA73], for which the IC50 in the data set with Trbp111 (hairpin) is 5.21 ± 0.817 µM; with Arc1p dN [2] (hairpin), 2.45 ± 0.511 µM.

B18: tRNATyr ASL-GAAA dACCA 6bp (structured_RNA)
RNA: GGGCCCGGUGGGGUUCCCGAGCGGCCAAAGGGAGCAGACGAAAGUCUGCCGUCAUCGACUUCGAAGGUUCGAAUCCUUCCCCCACCGGGCCC
Take B18: the IC50 with Arc1p dN [2] stood at 1.02 ± 0.224 µM; with Arc1p, 5.11 µM. For AGGCUUGGGUGGUUCAAGUCCACUCAGGCCUACAA (structured_RNA) [MiniH-ACAA], the IC50 in the data set with Arc1p dN [2] came out at 3.08 ± 0.63 µM.

Take AGGCUUGGGUGGUUCAAGUCCACUCAGGCCUACUA (structured_RNA) [MiniH-ACUA]: the IC50 with Arc1p dN [2] came out at 2.6 ± 0.397 µM. Same read-out and setting: then AGGCUUGGGUGGUUCAAGUCCACUCAGGCCUACGA (structured_RNA) [MiniH-ACGA], with 4.83 ± 0.11 µM. AGGCUUGGGUGGUUCAAGUCCACUCAGGCCUACAC (structured_RNA) [MiniH-ACAC]: the IC50 in the data set with Arc1p dN [2] (hairpin) turned out to be 3.92 ± 0.672 µM. Consider AGGCUUGGGUGGUUCAAGUCCACUCAGGCCUACCA (mixed, four terminal deoxyriboses) [MiniH DNA tail], for which the half-maximal inhibitory concentration (IC50) with Trbp111 (hairpin) came out at 7.51 ± 1.02 µM.

B19: MiniH dLoop+4bp (dsRNA)
RNA 1: GUGACCACUCAGGCCUACCA
RNA 2: AGGCUUGGGUGGUUAC
In the case of B19, in the data set with Arc1p dN [2], the IC50 is 3.9 ± 0.124 µM.
